This note sets out measurements from patent US20120115830A1 (QUEEN S UNIVERSITY OF BELFAST, published 2012).

Assay [1] concerns the target T1, USP19 cloned in-frame into pACT plasmid (UniProt O94966 1-1318).
T1 sequence (looked up): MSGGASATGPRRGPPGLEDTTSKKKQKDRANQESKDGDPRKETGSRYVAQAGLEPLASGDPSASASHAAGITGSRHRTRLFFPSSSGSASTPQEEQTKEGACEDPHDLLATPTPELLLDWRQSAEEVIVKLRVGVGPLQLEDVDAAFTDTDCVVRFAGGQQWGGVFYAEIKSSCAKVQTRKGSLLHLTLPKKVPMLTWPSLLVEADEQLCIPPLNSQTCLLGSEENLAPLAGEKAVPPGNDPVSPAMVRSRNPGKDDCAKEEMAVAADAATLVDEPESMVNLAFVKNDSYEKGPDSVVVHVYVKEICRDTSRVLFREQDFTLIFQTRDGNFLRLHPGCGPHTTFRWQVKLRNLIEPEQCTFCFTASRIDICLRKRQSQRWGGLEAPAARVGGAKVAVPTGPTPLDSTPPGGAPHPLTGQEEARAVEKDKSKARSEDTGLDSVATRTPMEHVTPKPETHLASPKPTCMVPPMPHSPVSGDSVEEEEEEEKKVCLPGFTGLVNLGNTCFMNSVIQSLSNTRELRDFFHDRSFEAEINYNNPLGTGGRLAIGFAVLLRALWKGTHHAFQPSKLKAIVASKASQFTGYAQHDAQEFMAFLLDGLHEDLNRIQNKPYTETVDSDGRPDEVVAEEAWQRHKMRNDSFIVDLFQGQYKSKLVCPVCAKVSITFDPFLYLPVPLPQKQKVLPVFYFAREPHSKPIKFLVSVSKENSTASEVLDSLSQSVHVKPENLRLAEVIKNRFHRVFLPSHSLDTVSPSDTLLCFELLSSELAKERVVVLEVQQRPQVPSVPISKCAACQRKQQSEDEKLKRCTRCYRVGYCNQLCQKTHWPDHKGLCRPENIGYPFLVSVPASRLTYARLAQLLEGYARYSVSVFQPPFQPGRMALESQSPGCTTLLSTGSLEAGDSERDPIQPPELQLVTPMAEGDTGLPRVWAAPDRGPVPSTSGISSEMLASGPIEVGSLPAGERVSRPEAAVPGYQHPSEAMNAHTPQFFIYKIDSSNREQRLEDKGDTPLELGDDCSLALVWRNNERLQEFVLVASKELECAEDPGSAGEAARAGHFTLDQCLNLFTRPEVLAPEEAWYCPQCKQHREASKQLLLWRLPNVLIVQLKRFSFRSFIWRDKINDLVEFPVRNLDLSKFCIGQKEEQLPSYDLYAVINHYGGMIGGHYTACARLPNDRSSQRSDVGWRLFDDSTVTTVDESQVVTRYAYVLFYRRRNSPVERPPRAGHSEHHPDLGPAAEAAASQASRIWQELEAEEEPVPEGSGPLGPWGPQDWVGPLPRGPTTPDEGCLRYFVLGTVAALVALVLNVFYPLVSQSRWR
In words: cell-based or functional assay.

For assay [2], the target named is T2, XAP3 cloned in-frame into pACT plasmid (UniProt Q9BYM8 1-510).
T2 sequence (looked up): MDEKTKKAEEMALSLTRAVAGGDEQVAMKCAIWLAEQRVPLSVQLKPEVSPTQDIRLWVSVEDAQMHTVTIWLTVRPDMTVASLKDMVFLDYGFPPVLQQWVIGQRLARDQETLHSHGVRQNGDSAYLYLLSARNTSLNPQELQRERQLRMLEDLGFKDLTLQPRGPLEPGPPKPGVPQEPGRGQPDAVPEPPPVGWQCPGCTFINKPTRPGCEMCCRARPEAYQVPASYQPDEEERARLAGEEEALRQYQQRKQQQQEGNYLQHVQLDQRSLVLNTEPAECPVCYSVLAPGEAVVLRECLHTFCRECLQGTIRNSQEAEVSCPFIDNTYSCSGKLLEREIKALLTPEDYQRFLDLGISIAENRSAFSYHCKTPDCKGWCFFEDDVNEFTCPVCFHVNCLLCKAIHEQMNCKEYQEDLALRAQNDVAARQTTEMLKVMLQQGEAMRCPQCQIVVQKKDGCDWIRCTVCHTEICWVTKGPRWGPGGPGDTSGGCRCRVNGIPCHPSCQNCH
Kind of assay: cell-based or functional assay.

For assay [3], the target named is T2, XAP3 cloned in-frame into pACT plasmid. Kind of assay: mammalian two-hybrid (firefly luciferase) in L132 cells.
Experimental: In order to confirm the interactions detected using the yeast two-hybrid system and determine that the interaction can take place in a biologically relevant model, the Checkmate Mammalian Two-Hybrid System (Promega, Cat no. E2440) was used. Full length FKBPL and a variety of FKBPL mutants were cloned ‘in-frame’ into pBIND plasmid according to manufacturer's instructions. XAP3 and USP19 were cloned ‘in-frame’ into pACT plasmid according to manufacturer's instructions. 2×10⁴ L132 cells were plated in triplicate into a 96 well plate for each transfection condition and incubated overnight at 37° C. with MEM containing 10% FCS. FKBPL, XAP3 and USP19 plasmids were transfected into cells using Lipofectamine Plus (Invitrogen, Cat no.) and incubated at 37° C. for 24 h. The plate was allowed to equilibrate to room temperature then 75 μl room temperature Dual-Glo Luciferase Reagent (Promega, Cat no. E2920) was added to each well, mixed thoroughly and wrapped in tinfoil. After 15 minutes incubation at room temperature, the Firefly luminescence was measured using a GENios platereader (Tecan). […] After 15 minutes incubation at room temperature, the Renilla luminescence was measured.
Following correction, increased firefly luminescence over self-activations controls indicated a positive interaction between the proteins.

B1: Full length FKBPL cloned in-frame into pBIND plasmid (other, not shown: large carriers)
chain: METPPVNTIGEKDTSQPQQEWEKNLRENLDSVIQIRQQPRDPPTETLELEVSPDPASQILEHTQGAEKLVAELEGDSHKSHGSTSQMPEALQASDLWYCPDGSFVKKIVIRGHGLDKPKLGSCCRVLALGFPFGSGPPEGWTELTMGVGPWREETWGELIEKCLESMCQGEEAELQLPGHSGPPVRLTLASFTQGRDSWELETSEKEALAREERARGTELFRAGNPEGAARCYGRALRLLLTLPPPGPPERTVLHANLAACQLLLGQPQLAAQSCDRVLEREPGHLKALYRRGVAQAALGNLEKATADLKKVLAIDPKNRAAQEELGKVVIQGKNQDAGLAQGLRKMFG
Regarding B1, the “induction of firefly luminescence” value stood at 10 fold in assay [1] and 20 fold in assay [2].

B2: FKBPLΔ200 (other, not shown: large carriers)
chain: METPPVNTIGEKDTSQPQQEWEKNLRENLDSVIQIRQQPRDPPTETLELEVSPDPASQILEHTQGAEKLVAELEGDSHKSHGSTSQMPEALQASDLWYCPDGSFVKKIVIRGHGLDKPKLGSCCRVLALGFPFGSGPPEGWTELTMGVGPWREETWGELIEKCLESMCQGEEAELQLPGHSGPPVRLTLASFTQGRDSWE
In the case of B2, the binding result in assay [3] is recorded as “no binding”.
